# Like-named read-outs stand apart in the source and are kept apart here.
# Columns and labels:
# [1] = In vitro stability in PBS; format: physicochemical; settings: PBS pH 7.4, room temperature
# Procedure: In vitro stability studies of ^99mTc-HYNIC-ADH1 were performed in FBS as well as PBS solution. A total of 50 μL of ^99mTc-HYNIC-ADH1 was mixed with 950 μL of FBS (or PBS), and its radioactivity was measured after being incubated at room temperature for 0.5, 1, 2, 4, 6 and 24 h, respectively.
# For stability assessments, ^99mTc-HYNIC-ADH-1 (3.7 MBq) was incubated in PBS (pH 7.4) or FBS for 24 h. […] The radiochemical purities were 98.51%, 98.50%, 97.97%, 98.02%, 98.81%, 98.09% and 98.09% in FBS at room temperature at 0.5, 1, 2, 3, 6, 12 and 24 h, respectively.
# PC9GR tumor = assay: Small animal SPECT/CT imaging, ROI analysis; format: in vivo, BALB/c nude mice; settings: 1 h
# Procedure: (§1) All animal research was performed in accordance with the Zhejiang University Institutional Animal Care and Use Committee guidelines. PC9 and PC9GR cells (2 × 10^6 cells per mice) were injected subcutaneously into the flanks of 2- to 4-week old BALB/c nude mice (left: PC9GR, right: PC9). The cells were allowed to grow 3–5 weeks until tumors were 1 ± 0.5 cm^3 in volume. Normal C57/BL6 mice (aged 6 to 8 wks old) were obtained from the Animal Center of the First Affiliated Hospital of Zhejiang University. All animals were maintained with free access to food and water and used a standard diet, bedding and environment.
# (§2) Xenograft models were imaged using a nanoScan SPECT/CT (Mediso, Hungary) in vivo imaging system and anesthetized with 2% isoflurane before imaging. Mice in the non-blocked group (n = 4) were injected via tail vein with 3.7 MBq (100 μL) of radiotracer and imaged at different time points (1, 2 and 6 h). In the blocked group, 100 μL excess ADH-1 was injected through the tail vein 30 min in advance, and then the same volume and dose of imaging agent were injected for 1 h after imaging.
# (§3) Three-dimensional ROIs were delineated along the edge of the tumor using SPECT/CT analysis software. Spherical ROIs of 0.03 cm^3 were delineated in organs or tissues (liver and muscle). The radiation intensity of each region was measured, and the tumor/non-tumor ratio was calculated.
# PC9 tumor = assay: Small animal SPECT/CT imaging, ROI analysis; format: in vivo, BALB/c nude mice; settings: non-blocked, 1 h
# Procedure: as §1, §2, §3
# [2] = Biodistribution in xenograft-bearing nude mice, organs; format: in vivo, BALB/c nude mice; settings: mouse, iv, 0.74 MBq, i.v.; for tissue uptake at 0.5 h: 30 min; for tissue uptake at 1 h: 60 min; for tissue uptake at 2 h: 120 min; for tissue uptake at 4 h: 240 min
# Procedure: as §1
# The radiotracer (0.1 mL, 0.74 MBq) was injected intravenously into normal C57/BL6 mice and xenograft models as previously described (n = 4 per group per time) via the tail vein. After different time intervals (30, 60, 120 and 240 min), the mice were sacrificed by cervical dislocation, and their blood, tumors and major organs (brain, heart, lung, liver, spleen, kidney, stomach, intestine, muscle, bone and skin) were harvested and weighed. The radioactivity of each sample was measured with a γ-counter. Values are shown as the percentage of the injected dose per gram (%ID/g), which corrected for background and decay to maintain consistency.
# [3] = Partition coefficient (Log D), 1-octanol/PBS; format: physicochemical; settings: 1-octanol and PBS (pH 7.4), n = 3
# Procedure: Partition coefficients (Log D) of ^99mTc-HYNIC-ADH-1 were measured through the assessment of the distribution of radioactivity in 1-octanol and phosphate buffer in a 2 mL centrifuge tube. A 10 µL ^99mTc-HYNIC-ADH-1 solution was added to a vial containing 1 mL each of 1-octanol and PBS (pH 7.4). After vortexing for 10 min, the vial was centrifuged for 10 min to ensure complete separation of the layers. Then, 10 µL of each layer was pipetted into separate test tubes, and the counts were measured using a γ counter. Partition coefficients are shown as the log counts in 1-octanol vs. PBS layers (n = 3).
# [4] = Pharmacokinetic studies (blood radioactivity, PK solver); format: in vivo; settings: C57/BL6 mice, i.v.
# Procedure: For the pharmacokinetic studies, four C57/BL6 mice weighing 18–20 g were administrated with ^99mTc-HYNIC-ADH1 (0.1 mL, 0.74 MBq) by i.v. injection into the tail vein. An array of blood samples was acquired and weighed by pinching the tail with a syringe at 2, 5, 15, 20, 30, 45, 60, 90, 120 and 240 min post-injection (p.i.). Radioactivity was calculated as the % of dose per g of tissue per body weight (%ID/g) expressed over time. […] Pharmacokinetics was assayed using PK solver 2.0.
# [5] = blood, read-out: Biodistribution, Blood
# [6] = bone, read-out: Biodistribution, Bone
# [7] = brain, read-out: Biodistribution, Brain
# [8] = heart, read-out: Biodistribution, Heart
# [9] = intestine, read-out: Biodistribution, Intestine
# [10] = kidney, read-out: Biodistribution, Kidney
# [11] = liver, read-out: Biodistribution, Liver
# [12] = lung, read-out: Biodistribution, Lung
# [13] = muscle, read-out: Biodistribution, Muscle
# [14] = skin, read-out: Biodistribution, Skin
# [15] = spleen, read-out: Biodistribution, Spleen
# [16] = stomach, read-out: Biodistribution, Stomach
structure (smiles),measurement,setting,value
"CC(=O)N[C@H]1CSSC[C@@H](C(=O)NCCNC(=O)c2ccc(NN)nc2)NC(=O)[C@H](C(C)C)NC(=O)[C@H](C)NC(=O)[C@H](Cc2c[nH]cn2)NC1=O [^99mTc-HYNIC-ADH-1, metal not drawn]",radiochemical purity,[1]; 0.5 h,99.01%
same,radiochemical purity,[1]; 1 h,98.81%
same,radiochemical purity,[1]; 2 h,98.55%
same,radiochemical purity,[1]; 3 h,99.02%
same,radiochemical purity,[1]; 6 h,98.52%
same,radiochemical purity,[1]; 12 h,98.01%
same,"T/N (tumor to adjacent muscle radioactivity intensity, SPECT/CT ROI)",PC9GR tumor; blocked group (excess unlabeled ADH-1 30 min in advance),3.69 ± 0.50
same,"T/N (tumor to adjacent muscle radioactivity intensity, SPECT/CT ROI)",PC9GR tumor; non-blocked,7.73 ± 0.54
same,"T/N (tumor to adjacent muscle radioactivity intensity, SPECT/CT ROI)",PC9 tumor,3.66 ± 0.78
same,tissue uptake at 0.5 h,[2]; [5],1.35 ± 0.18 %ID/g
same,tissue uptake at 1 h,[2]; [5],0.84 ± 0.03 %ID/g
same,tissue uptake at 2 h,[2]; [5],0.49 ± 0.05 %ID/g
same,tissue uptake at 4 h,[2]; [5],0.48 ± 0.2 %ID/g
same,tissue uptake at 0.5 h,[2]; [6],0.46 ± 0.03 %ID/g
same,tissue uptake at 1 h,[2]; [6],0.37 ± 0.04 %ID/g
same,tissue uptake at 2 h,[2]; [6],0.26 ± 0.04 %ID/g
same,tissue uptake at 4 h,[2]; [6],0.21 ± 0.01 %ID/g
same,tissue uptake at 0.5 h,[2]; [7],0.05 ± 0.01 %ID/g
same,tissue uptake at 1 h,[2]; [7],0.07 ± 0.01 %ID/g
same,tissue uptake at 2 h,[2]; [7],0.05 %ID/g
same,tissue uptake at 4 h,[2]; [7],0.03 %ID/g
same,tissue uptake at 0.5 h,[2]; [8],0.57 ± 0.03 %ID/g
same,tissue uptake at 1 h,[2]; [8],0.42 ± 0.08 %ID/g
same,tissue uptake at 2 h,[2]; [8],0.28 ± 0.01 %ID/g
same,tissue uptake at 4 h,[2]; [8],0.23 ± 0.01 %ID/g
same,tissue uptake at 0.5 h,[2]; [9],0.43 ± 0.03 %ID/g
same,tissue uptake at 1 h,[2]; [9],1.38 ± 1.01 %ID/g
same,tissue uptake at 2 h,[2]; [9],0.58 ± 0.12 %ID/g
same,tissue uptake at 4 h,[2]; [9],0.88 ± 0.38 %ID/g
same,tissue uptake at 0.5 h,[2]; [10],3.77 ± 1 %ID/g
same,tissue uptake at 1 h,[2]; [10],2.85 ± 0.54 %ID/g
same,tissue uptake at 2 h,[2]; [10],3.13 ± 0.7 %ID/g
same,tissue uptake at 4 h,[2]; [10],3.13 ± 0.54 %ID/g
same,tissue uptake at 0.5 h,[2]; [11],0.76 ± 0.06 %ID/g
same,tissue uptake at 1 h,[2]; [11],0.66 ± 0.06 %ID/g
same,tissue uptake at 2 h,[2]; [11],0.59 ± 0.01 %ID/g
same,tissue uptake at 4 h,[2]; [11],0.55 ± 0.1 %ID/g
same,tissue uptake at 0.5 h,[2]; [12],1.5 ± 0.04 %ID/g
same,tissue uptake at 1 h,[2]; [12],1.2 ± 0.16 %ID/g
same,tissue uptake at 2 h,[2]; [12],0.68 ± 0.11 %ID/g
same,tissue uptake at 4 h,[2]; [12],0.56 ± 0.08 %ID/g
same,tissue uptake at 0.5 h,[2]; [13],0.5 ± 0.47 %ID/g
same,tissue uptake at 1 h,[2]; [13],0.47 ± 0.1 %ID/g
same,tissue uptake at 2 h,[2]; [13],0.24 ± 0.01 %ID/g
same,tissue uptake at 4 h,[2]; [13],0.25 ± 0.04 %ID/g
same,tissue uptake at 0.5 h,[2]; [14],1.22 ± 0.05 %ID/g
same,tissue uptake at 1 h,[2]; [14],1.33 ± 0.33 %ID/g
same,tissue uptake at 2 h,[2]; [14],1.21 ± 0.44 %ID/g
same,tissue uptake at 4 h,[2]; [14],1.73 ± 0.08 %ID/g
same,tissue uptake at 0.5 h,[2]; [15],0.35 ± 0.03 %ID/g
same,tissue uptake at 1 h,[2]; [15],0.27 ± 0.02 %ID/g
same,tissue uptake at 2 h,[2]; [15],0.22 ± 0.02 %ID/g
same,tissue uptake at 4 h,[2]; [15],0.2 ± 0.01 %ID/g
same,tissue uptake at 0.5 h,[2]; [16],1.16 ± 0.18 %ID/g
same,tissue uptake at 1 h,[2]; [16],0.78 ± 0.32 %ID/g
same,tissue uptake at 2 h,[2]; [16],0.73 ± 0.31 %ID/g
same,tissue uptake at 4 h,[2]; [16],0.69 ± 0.29 %ID/g
same,logD,[3],-2.45 ± 0.1
same,AUC(0–t),[4],0.0593 µg·min/L
same,AUC(0–∞),[4],0.0595 µg·min/L
same,K10,[4],0.0815 min⁻¹
same,K12,[4],0.1511 min⁻¹
same,K21,[4],0.0794 min⁻¹
same,V1,[4],68.753 L/kg
same,T1/2α,[4]; two-compartment model,2.3925 min
same,half-life,"[4]; mouse, blood, iv, 0.74 MBq, two-compartment model, read-out: T1/2β",31 min
